Test results taken from patent publication US20260056186A1 (JIANGSU HENGRUI PHARMACEUTICALS, published 2026).

Columns and labels:
[1] = biological target: T1, BAFF (Sino biological, 10056-HNCH) (UniProt Q9Y275 134-285, biotinylated in the blocking ELISA (site not stated)); test: ELISA, BAFF coated at 1 ug/mL, anti-human IgG-HRP
T1 construct: also called BLyS
Procedure: (§1) In addition, the BAFF binding activity of the constructed TACI-Fc fusion proteins was assessed, and the TACI-Fc fusion proteins' functional activity of blocking the binding of BAFF to BAFF-R was assessed (see Example 1 for the experimental method).
The BAFF binding activity of the TACI-Fc fusion proteins was assessed as follows: BAFF (Sino biological, 10056-HNCH) protein was diluted with a pH 7.4 PBS (BasalMedia, B320) buffer to 1 μg/mL, and the resulting dilution was added to a 96-well microplate (Corning, 3590) at 100 μL/well. The plate was incubated overnight at 4° C. After the liquid was discarded, 5% skim milk (BD, 232100), diluted with PBS, was added at 300 μL/well for blocking, and the plate was incubated at 37° C. for 2 h. After the blocking, the blocking solution was discarded, and the plate was washed 3 times with a PBST buffer (pH 7.4 PBS containing 0.10% tween-20). Serially diluted test antibody or fusion protein solutions were added at 100 μL/well, and the plate was incubated at 37° C. for 1 h. […] The plate was incubated at 37° C. for 1 h. After the plate was washed 3 times with PBST, the chromogenic substrate TMB (KPL, 5120-0077) was added at 100 μL/well. The plate was incubated at room temperature for 10-15 min, and 1 M H₂SO₄ was added at 50 μL/well to stop the reaction. The absorbance at 450 nm was measured using a microplate reader. Curves for the binding of the antibodies to the antigen were fitted using software, and EC₅₀ values were calculated.

[2] = biological target: T1, BAFF (Sino biological, 10056-HNCH); test: competition ELISA: fusion protein pre-mixed with biotinylated BAFF, added to coated BAFF-R
Procedure: The above TACI-Fc fusion proteins' function of blocking the binding of BAFF to BAFF-R was further assessed as follows: The receptor protein was diluted with a pH 7.4 PBS (BasalMedia, B320) buffer to 2 μg/mL, and the resulting dilution was added to a 96-well microplate (Corning, 3590) at 100 μL/well. The plate was incubated overnight at 4° C. After the liquid was discarded, 1% Casein blocking solution (Thermo, 37528) was added at 200 μL/well for blocking, and the plate was incubated at 37° C. for 2 h. After the blocking, the blocking solution was discarded, and the plate was washed 3 times with a PBST buffer (pH 7.4 PBS containing 0.1% tween-20) and set aside for later use. A biotinylated ligand protein at a fixed concentration was mixed with a serially diluted antibody or fusion protein, and the mixture was pre-incubated at 37° C. for 30 min and then added to the blocked microplate. The plate was incubated at 37° C. for 1.5 h. After the incubation, the plate was washed 3 times with PBST, and streptavidin-HRP (Invitrogen, 434323, diluted in a 1:4000 ratio) was added at 100 μL/well. The plate was incubated at 37° C. for 1 h. The supernatant was removed. After the plate was washed 3 times with PBST, the chromogenic substrate TMB (KPL, 5120-0077) was added at 100 μL/well. The plate was incubated at room temperature for 10-15 min, and 1 M H₂SO₄ was added at 50 μL/well to stop the reaction. The absorbance at 450 nm was measured using a microplate reader. Curves for the inhibition of the binding of the ligand to the receptor were fitted using software, and IC₅₀ values were calculated. The sources of the ligand and the receptor protein used are as follows: BAFF (Sino biological, 10056-HNCH) and BAFF-R (Sino biological, 16079-H02H).
as §1

IFNAR1 [3] = biological target: T2, IFNAR1 (human, UniProt P17181 28-557); test: cell-based or functional assay
T2 sequence (looked up): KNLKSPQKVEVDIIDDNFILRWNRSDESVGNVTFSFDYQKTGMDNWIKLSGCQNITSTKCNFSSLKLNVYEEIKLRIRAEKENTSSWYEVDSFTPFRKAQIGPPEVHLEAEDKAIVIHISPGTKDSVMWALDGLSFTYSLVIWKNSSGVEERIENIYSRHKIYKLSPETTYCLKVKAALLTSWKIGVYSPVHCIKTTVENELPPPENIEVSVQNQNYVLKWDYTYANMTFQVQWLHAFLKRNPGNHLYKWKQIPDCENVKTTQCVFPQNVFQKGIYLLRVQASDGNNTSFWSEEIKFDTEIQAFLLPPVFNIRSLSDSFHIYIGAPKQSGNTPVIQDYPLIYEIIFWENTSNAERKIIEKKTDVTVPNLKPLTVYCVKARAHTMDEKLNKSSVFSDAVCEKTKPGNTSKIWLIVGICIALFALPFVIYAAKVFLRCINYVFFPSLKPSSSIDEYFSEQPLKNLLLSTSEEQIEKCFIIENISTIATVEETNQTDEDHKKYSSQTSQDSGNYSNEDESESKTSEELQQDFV

IFNAR1 [4] = biological target: T2, IFNAR1; test: cell-based or functional assay; remark: listed apart in the source
[5] = biological target: T3, recombinant human BAFF (R&D cat: 7537-BF-025/CF) (human, UniProt Q9Y275 134-285); test: cell-based or functional assay
T3 sequence (Q9Y275 134-285 limits assumed): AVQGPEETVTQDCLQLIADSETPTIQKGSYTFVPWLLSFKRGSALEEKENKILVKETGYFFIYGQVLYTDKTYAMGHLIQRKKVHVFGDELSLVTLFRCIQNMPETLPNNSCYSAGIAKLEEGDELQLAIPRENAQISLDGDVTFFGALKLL

[6] = biological target: T4, recombinant human APRIL (R&D cat: 5860-AP-010/CF) (human, UniProt O75888 105-250, limits assumed); test: cell-based or functional assay
T4 sequence (looked up): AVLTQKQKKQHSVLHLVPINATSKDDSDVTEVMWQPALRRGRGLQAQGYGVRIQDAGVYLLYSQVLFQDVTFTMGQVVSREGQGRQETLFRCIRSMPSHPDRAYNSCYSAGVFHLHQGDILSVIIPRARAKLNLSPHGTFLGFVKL

[7] = biological target: T3, recombinant human BAFF (R&D cat: …); test: cell-based or functional assay; remark: listed apart in the source
[8] = biological target: T4, recombinant human APRIL (R&D cat: …); test: cell-based or functional assay; remark: listed apart in the source
[9] = biological target: T5, APRIL (Acro Biosystems, Cat: APL-H52D1) (UniProt O75888 115-250, limits assumed); test: ELISA, APRIL coated at 1 ug/mL, anti-human Fc-HRP, OD450
T5 construct: also called ARPIL
T5 sequence (looked up): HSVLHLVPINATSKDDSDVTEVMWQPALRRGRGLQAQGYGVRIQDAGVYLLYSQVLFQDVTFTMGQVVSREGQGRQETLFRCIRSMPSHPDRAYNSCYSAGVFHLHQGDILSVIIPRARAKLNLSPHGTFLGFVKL
Procedure: The capabilities of fusion proteins B606401, B637302, B746201, and B805201 to bind to BAFF and APRIL were assessed by ELISA as follows:
BAFF (PeproTech, Cat: 310-13) or ARPIL (Acro Biosystems, Cat: APL-H52D1) was diluted to 1 μg/mL with PBS, and a 96-well plate was coated with the dilution overnight at 4° C. The plate was washed with PBST and blocked with Blocking Buffer (PBST containing 1% BSA) at 37° C. for 1 h. The plate was tapped. The test antibodies were diluted with Blocking Buffer. Incubation was performed at 37° C. for 1.5 h. The plate was washed with PBST. An HRP-mouse anti-human Fc antibody (GenScript, Cat: A01854-200) was diluted with Blocking Buffer. Incubation was performed at 37° C. for 40 min. The plate was washed with PBST. 100 μL of TMB substrate solution (Biopanda, Cat: TMB-S-003) was added, and color development was performed at 37° C. for 3 min. 100 μL of ELISA stop solution (Solarbio, Cat: C1058) was added. OD450 was measured.

T1 sequence (Q9Y275 134-285 limits assumed): as the sequence (Q9Y275 134-285 limits assumed) above

B1: TACI-11-Fc (Fc fusion)
chain: SLSCRKEQGKFYDHLLRDCISCASICGQHPKQCAYFCENDKTHTCPPCPAPEAEGAPSVFLFPPKPKDTLMISRTPEVTCVVVDVSHEDPEVKFNWYVDGVEVHNAKTKPREEQYNSTYRVVSVLTVLHQDWLNGKEYKCKVSNKALPSSIEKTISKAKGQPREPQVYTLPPSRDELTKNQVSLTCLVKGFYPSDIAVEWESNGQPENNYKTTPPVLDSDGSFFLYSKLTVDKSRWQQGNVFSCSVMHEALHNHYTQKSLSLSPGK
EC50 [1]: 0.584 nM | IC50 [2]: 2.62 nM

B2: TACI-12-Fc (Fc fusion)
chain: SLSCRKEQGKFYDHLLRDCISCASICGQHPKQCAYFCEDKTHTCPPCPAPEAEGAPSVFLFPPKPKDTLMISRTPEVTCVVVDVSHEDPEVKFNWYVDGVEVHNAKTKPREEQYNSTYRVVSVLTVLHQDWLNGKEYKCKVSNKALPSSIEKTISKAKGQPREPQVYTLPPSRDELTKNQVSLTCLVKGFYPSDIAVEWESNGQPENNYKTTPPVLDSDGSFFLYSKLTVDKSRWQQGNVFSCSVMHEALHNHYTQKSLSLSPGK
notes: TACI-9 truncated C-terminally by 3 amino acids, fused directly to Fc
EC50 [1]: 0.894 nM | IC50 [2]: 3.86 nM

B3: TACI-10-Fc (Fc fusion)
chain: SLSCRKEQGKFYDHLLRDCISCASICGQHPKQCAYFCENKDKTHTCPPCPAPEAEGAPSVFLFPPKPKDTLMISRTPEVTCVVVDVSHEDPEVKFNWYVDGVEVHNAKTKPREEQYNSTYRVVSVLTVLHQDWLNGKEYKCKVSNKALPSSIEKTISKAKGQPREPQVYTLPPSRDELTKNQVSLTCLVKGFYPSDIAVEWESNGQPENNYKTTPPVLDSDGSFFLYSKLTVDKSRWQQGNVFSCSVMHEALHNHYTQKSLSLSPGK
notes: TACI-9 truncated C-terminally by 1 amino acid, fused directly to Fc
EC50 [1]: 0.561 nM | IC50 [2]: 2.7 nM

B4: B606401 (other)
heavy: EVQLVQSGAEVKKPGESLKISCKGSGYIFTNYWIAWVRQMPGKGLESMGIIYPGDSDIRYSPSFQGQVTISADKSITTAYLQWSSLKASDTAMYYCARHDIEGFDYWGRGTLVTVSSASTKGPSVFPLAPSSKSTSGGTAALGCLVKDYFPEPVTVSWNSGALTSGVHTFPAVLQSSGLYSLSSVVTVPSSSLGTQTYICNVNHKPSNTKVDKRVEPKSCDKTHTCPPCPAPEFEGGPSVFLFPPKPKDTLMISRTPEVTCVVVDVSHEDPEVKFNWYVDGVEVHNAKTKPREEQYNSTYRVVSVLTVLHQDWLNGKEYKCKVSNKALPASIEKTISKAKGQPREPQVYTLPPSRDELTKNQVSLTCLVKGFYPSDIAVEWESNGQPENNYKTTPPVLDSDGSFFLYSKLTVDKSRWQQGNVFSCSVMHEALHNHYTQKSLSLSPGK
light: EIVLTQSPGTLSLSPGERATLSCRASQSVSSSFFAWYQQKPGQAPRLLIYGASSRATGIPDRLSGSGSGTDFTLTITRLEPEDFAVYYCQQYDSSAITFGQGTRLEIKRTVAAPSVFIFPPSDEQLKSGTASVVCLLNNFYPREAKVQWKVDNALQSGNSQESVTEQDSKDSTYSLSSTLTLSKADYEKHKVYACEVTHQGLSSPVTKSFNRGECGGGGSGGGGSSTSCREEQGEFYDHLLRDCISCASICGQHPKQCAAFCE
notes: Fusion protein of anifrolumab and TACI-19-16 (C-terminus of the light chain)
IC50, inhibition of IFN-alpha-induced in vitro differentiation of B cells into plasma cells (CD27+ CD38+) (IFNAR1 [3]): 17.4 nM | IC50 (nM), inhibition of the activity of type I interferons (IFN-beta, HEK-Blue IFN-alpha/beta reporter cells) (IFNAR1 [4]): 1.94 nM | Flow cytometry proliferating B cell proportion (%), mean value, BAFF-induced, drug at 10 nM (IgG1: 40.15) [5]: 28.1% | Flow cytometry proliferating B cell proportion (%), mean value, BAFF-induced, drug at 100 nM (IgG1: 40.60) [5]: 25.3% | Flow cytometry proliferating B cell proportion (%), mean value, BAFF-induced, drug at 1000 nM (IgG1: 33.97) [5]: 17.9% | Flow cytometry proliferating B cell proportion (%), mean value, APRIL-induced, drug at 4.12 nM (IgG1: 55.30) [6]: 52% | Flow cytometry proliferating B cell proportion (%), mean value, APRIL-induced, drug at 12.35 nM (IgG1: 54.80) [6]: 52.9% | Flow cytometry proliferating B cell proportion (%), mean value, APRIL-induced, drug at 37.04 nM (IgG1: 56.63) [6]: 53.6% | Flow cytometry proliferating B cell proportion (%), mean value, APRIL-induced, drug at 111.11 nM (IgG1: 55.83) [6]: 53.1% | Flow cytometry proliferating B cell proportion (%), mean value, APRIL-induced, drug at 333.33 nM (IgG1: 56.27) [6]: 50.6% | Flow cytometry proliferating B cell proportion (%), mean value, APRIL-induced, drug at 1000.00 nM (IgG1: 53.27) [6]: 40.3% | CD27+ CD38+ plasma cell count, mean value, BAFF + APRIL-induced (both ligands together), drug at 100 nM (IgG1: 2496) [7]: 549 cells | CD27+ CD38+ plasma cell count, mean value, BAFF + APRIL-induced (both ligands together), drug at 1000 nM (IgG1: 2279) [7]: 426 cells | CD27+ CD38+ plasma cell count, mean value, BAFF + APRIL-induced (both ligands together), drug at 10 nM (IgG1: 2687) [8]: 654 cells | CD27+ CD38+ plasma cell count, mean value, BAFF + APRIL-induced (both ligands together), drug at 100 nM (IgG1: 2496) [8]: 549 cells | CD27+ CD38+ plasma cell count, mean value, BAFF + APRIL-induced (both ligands together), drug at 1000 nM (IgG1: 2279) [8]: 426 cells | EC50 [9]: 0.607 nM | Emax [9]: 2.81
